The target of the test is T1, VPS10P domain of sortilin fused with GST (mouse, UniProt Q6PHU5 76-750).
T1 construct: also called GST-VPS10P; GST-tagged VPS10P domain of sortilin
T1 sequence (looked up): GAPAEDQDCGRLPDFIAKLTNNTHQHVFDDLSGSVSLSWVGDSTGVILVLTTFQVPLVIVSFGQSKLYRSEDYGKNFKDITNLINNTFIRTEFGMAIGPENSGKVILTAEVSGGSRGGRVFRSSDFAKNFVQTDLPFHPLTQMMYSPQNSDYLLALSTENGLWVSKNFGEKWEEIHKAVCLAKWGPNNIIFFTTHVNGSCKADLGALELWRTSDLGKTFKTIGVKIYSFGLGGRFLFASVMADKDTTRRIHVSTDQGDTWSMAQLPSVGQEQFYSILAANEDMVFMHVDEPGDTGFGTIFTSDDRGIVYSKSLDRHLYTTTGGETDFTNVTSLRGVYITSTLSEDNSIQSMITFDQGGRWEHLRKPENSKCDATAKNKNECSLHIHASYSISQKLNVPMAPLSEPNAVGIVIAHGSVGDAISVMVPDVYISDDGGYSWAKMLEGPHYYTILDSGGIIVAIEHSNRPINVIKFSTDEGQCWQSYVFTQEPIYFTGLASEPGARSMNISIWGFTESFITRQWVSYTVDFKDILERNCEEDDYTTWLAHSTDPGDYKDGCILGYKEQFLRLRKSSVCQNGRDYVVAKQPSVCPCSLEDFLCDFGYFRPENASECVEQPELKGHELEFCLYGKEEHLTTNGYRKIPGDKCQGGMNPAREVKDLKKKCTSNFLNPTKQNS
In words: pull-down. The conditions noted are these: both partners purified.

B1: His-tagged full-length recombinant PrP (natural protein)
chain: not shown
For B1, the binding result was “binds”.

The values are drawn from paper PMC5509376 (PLoS Pathogens, 2017).
